Laboratory results: publication PMC6760769, “A pull-down and slot blot-based screening system for inhibitor compounds of the podoplanin-CLEC-2 interaction” (PLoS ONE, 2019)

Key:
[1] = molecular target: T1, C-type lectin-like receptor 2 (CLEC-2) (Homo sapiens, UniProt Q9P126); experiment: pull-down of podoplanin (pod-HeLa lysate) with purified Fc-CLEC-2 pre-incubated with compound; slot blot and western blot; format: biochemical
T1 construct: gene CLEC1B; extracellular region of CLEC-2 (351–890, NM_016509), human IgG1 Fc-fusion (Fc-CLEC-2); with podoplanin
T1 sequence (Q9P126 50-229, one chain of several): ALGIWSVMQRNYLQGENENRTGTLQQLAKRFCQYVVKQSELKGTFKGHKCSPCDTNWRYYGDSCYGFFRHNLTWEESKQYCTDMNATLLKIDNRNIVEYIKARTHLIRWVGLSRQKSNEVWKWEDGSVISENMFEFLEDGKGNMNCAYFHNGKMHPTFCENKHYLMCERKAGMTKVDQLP

[2] = molecular target: Fc moiety alone (human IgG1 Fc) (human); experiment: SDS-PAGE under reducing and non-reducing conditions; purified protein, with or without 2-mercaptoethanol, Coomassie blue staining
CLEC-2 (Homo sapiens) = CLEC-2 (Homo sapiens) (UniProt Q9P126); details: cited from earlier work
CLEC-2 (Homo sapiens), sequence (Q9P126 whole entry, the tested form may be a part): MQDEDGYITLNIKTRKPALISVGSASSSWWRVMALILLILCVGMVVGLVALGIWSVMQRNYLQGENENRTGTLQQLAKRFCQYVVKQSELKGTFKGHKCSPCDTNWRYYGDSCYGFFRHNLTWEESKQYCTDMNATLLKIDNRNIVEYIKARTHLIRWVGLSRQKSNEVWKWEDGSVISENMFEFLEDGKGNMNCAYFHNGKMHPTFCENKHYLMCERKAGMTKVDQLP

[3] = molecular target: immunoglobulin Fc domain-CLEC-2 fusion protein (Fc-CLEC-2) (human) (UniProt Q9P126); experiment: pull-down; Fc-CLEC-2 or Fc (25 ug/mL) mixed in solution with pod-HeLa lysate (1.5 mg/mL; concentrations varied in some panels) on ice for 2 h, captured on protein A beads, washed 4x with TBST in a centrifugal filter unit, acid elution, SDS-PAGE and western blot with anti-podoplanin
immunoglobulin Fc domain-CLEC-2 fusion protein (Fc-CLEC-2) (human), sequence (Q9P126 whole entry, the tested form may be a part): as above

[4] = molecular target: immunoglobulin Fc domain-CLEC-2 fusion protein (Fc-CLEC-2) (human) (UniProt Q9P126); experiment: pull-down; standard combination (25 ug/mL Fc-CLEC-2, 1.5 mg/mL pod-HeLa lysate); hematoporphyrin or 2CP pre-incubated with Fc-CLEC-2 for 30 min, 2% DMSO control, in the dark; 10 uL slot-blotted; podoplanin intensity normalised to CLEC-2 intensity

## CC1=C(CCC(=O)O)c2cc3[nH]c(cc4nc(cc5[nH]c(cc1n2)c(C)c5C(C)O)C(C)=C4C(C)O)c(C)c3CCC(=O)O (centres unmarked) [HPy, hematoporphyrin]
[1]
  inhibition at 20 µM: ~70%

## Fc moiety alone (human IgG1 Fc) (domain or fragment)
[2]
  stoichiometry N: 2

## podoplanin (from UniProt Q86YL7)
CLEC-2 (Homo sapiens)
  Kd: 25 µM

B1: podoplanin (full-length, from podoplanin-overexpressing HeLa cells) (natural protein)
chain: ASTGQPEDDTETTGLEGGVAMPGAEDDVVTPGTSEDRYKSGLTTLVATSVNSVTGIRIEDLPTSESTVHAQEQSPSATASNVATSHSTEKVDGDTQTTVEKDGLSTVTLVGIIVGVLLAIGFIGAIIVVVMRKMSGRYSP
[3]
  percent of podoplanin recovered in the pull-down: < 20%
[4]
  percent inhibition of the pull-down by 20 uM hematoporphyrin: 70%
